Drawing on paper PMC3601957, “Structural Basis of Rap Phosphatase Inhibition by Phr Peptides” (PLoS Biology, 2013), this text covers screen value for 5 variants.

To fix the notation:
B1: RapF [B. subtilis] / PhrF [B. subtilis] (parent)
chain 1: MTGVISSSSIGEKINEWYMYIRRFSIPDAEYLRREIKQELDQMEEDQDLHLYYSLMEFRHNLMLEYLEPLEKMRIEEQPRLSDLLLEIDKKQARLTGLLEYYFNFFRGMYELDQREYLSAIKFFKKAESKLIFVKDRIEKAEFFFKMSESYYYMKQTYFSMDYARQAYEIYKEHEAYNIRLLQCHSLFATNFLDLKQYEDAISHFQKAYSMAEAEKQPQLMGRTLYNIGLCKNSQSQYEDAIPYFKRAIAVFEESNILPSLPQAYFLITQIHYKLGKIDKAHEYHSKGMAYSQKAGDVIYLSEFEFLKSLYLSGPDEEAIQGFFDFLESKMLYADLEDFAIDVAKYYHERKNFQKASAYFLKVEQVRQLIQGGVSLYEIEV
chain 2: QRGMI
B2: RapF [B. subtilis] / PhrC [B. subtilis] (parent)
chain 1: B1 chain 1
chain 2: ERGMT

In one assay the parent is B1. As to the kind of experiment: thermal-shift assay (Sypro orange fluorescence). The settings on record: with PhrF [B. subtilis], printed Tm without peptide: mutant 53.4 °C, wild type 49.5 °C.
On to chain 1 D194A, for which the screen value amounted to 53.3 °C.

Still in this assay, the particulars now being: with PhrF [B. subtilis], printed Tm without peptide: mutant 50.1 °C, wild type 49.5 °C.
Take chain 1 N227A: the screen value was 49.2 °C.

In another assay the parent is B2. In words: thermal-shift assay (Sypro orange fluorescence). The settings on record: with PhrC [B. subtilis], printed Tm without peptide: mutant 51.3 °C, wild type 49.5 °C.
As for chain 1 E303A, the screen value was determined as 53.8 °C.

Staying with this assay, now noted: with PhrC [B. subtilis], printed Tm without peptide: mutant 50.1 °C, wild type 49.5 °C.
On to chain 1 N227A, for which the screen value is 49.2 °C.

Staying with this assay, now noted: with PhrC [B. subtilis], printed Tm without peptide: mutant 53.4 °C, wild type 49.5 °C.
Regarding chain 1 D194A, the screen value turned out to be 52.3 °C.
